# Experimental data as given in publication PMC6085368, “Structure of the essential peptidoglycan amidotransferase MurT/GatD complex from Streptococcus pneumoniae” (Nature Communications, 2018).
# T1: MurT/GatD (Streptococcus pneumoniae, UniProt Q8DNZ8+Q8DNZ9)
# T1 construct: co-expressed in E. coli BL21 Star (DE3) from modified pET-30; MurT with N-terminal poly-His tag (cleavage not mentioned), GatD untagged; MurT/GatD heterodimer (four complexes in the asymmetric unit); MurT residues 1-42 present but not visible
# T1 sequence (Q8DNZ9 1-447): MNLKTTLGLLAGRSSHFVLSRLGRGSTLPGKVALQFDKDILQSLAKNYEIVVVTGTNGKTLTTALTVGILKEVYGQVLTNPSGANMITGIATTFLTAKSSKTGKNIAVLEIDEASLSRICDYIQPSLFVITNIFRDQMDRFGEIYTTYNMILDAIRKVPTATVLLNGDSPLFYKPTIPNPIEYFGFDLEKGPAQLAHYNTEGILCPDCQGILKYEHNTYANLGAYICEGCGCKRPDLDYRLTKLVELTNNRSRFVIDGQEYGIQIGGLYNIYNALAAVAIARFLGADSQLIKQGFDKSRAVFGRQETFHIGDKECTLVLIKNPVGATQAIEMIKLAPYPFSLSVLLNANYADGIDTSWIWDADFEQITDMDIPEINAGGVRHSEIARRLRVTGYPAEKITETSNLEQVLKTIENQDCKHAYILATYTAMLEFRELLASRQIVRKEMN
# T1 sequence (Q8DNZ8 1-260): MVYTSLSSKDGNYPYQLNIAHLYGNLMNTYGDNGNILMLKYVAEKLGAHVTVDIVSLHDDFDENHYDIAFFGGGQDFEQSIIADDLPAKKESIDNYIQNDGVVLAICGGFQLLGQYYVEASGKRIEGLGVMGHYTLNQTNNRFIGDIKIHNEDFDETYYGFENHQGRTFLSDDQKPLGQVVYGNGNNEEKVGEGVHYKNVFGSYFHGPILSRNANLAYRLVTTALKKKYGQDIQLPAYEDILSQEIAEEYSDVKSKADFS
# T2: MurT from Streptococcus pneumoniae, wild type, with N-terminal poly-histidine tag (Streptococcus pneumoniae, UniProt Q8DNZ9 1-447)
# T2 construct: MurT, subunit of the lipid II amidotransferase MurT/GatD, Streptococcus pneumoniae; N-terminal region 1-42 present by mass spectrometry though not visible in the crystal; central domain 43-302, C-terminal domain 303-439; also called MT; source: E. coli BL21 Star (DE3), co-expressed with GatD from a modified pET-30 plasmid; purified (HisTrap, Q Sepharose, SEC; anion exchange omitted for activity …)
# T2 sequence: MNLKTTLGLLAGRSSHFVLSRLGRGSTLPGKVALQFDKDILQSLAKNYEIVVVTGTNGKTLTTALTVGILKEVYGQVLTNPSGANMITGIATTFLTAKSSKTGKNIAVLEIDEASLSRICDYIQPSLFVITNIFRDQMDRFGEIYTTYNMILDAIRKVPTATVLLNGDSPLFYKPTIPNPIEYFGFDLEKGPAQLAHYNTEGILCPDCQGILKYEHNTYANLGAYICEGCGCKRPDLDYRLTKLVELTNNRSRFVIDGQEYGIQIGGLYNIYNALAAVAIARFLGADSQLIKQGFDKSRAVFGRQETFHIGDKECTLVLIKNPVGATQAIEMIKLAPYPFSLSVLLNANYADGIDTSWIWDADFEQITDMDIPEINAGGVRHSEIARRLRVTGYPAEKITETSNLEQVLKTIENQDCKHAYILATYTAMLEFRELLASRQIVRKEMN
# T3: MurT 4C4S variant (the four cysteines of the cysteine tetrad replaced by serines), with N-terminal … (Streptococcus pneumoniae, UniProt Q8DNZ9 1-447, 4C4S (Cys205 to Ser) | 4C4S (Cys208 to Ser) | 4C4S (Cys227 to Ser) | 4C4S …)
# T3 construct: MurT, Streptococcus pneumoniae, with cysteines 205, 208, 227 and 230 replaced by serines; PDB 6FQB holds the wild-type parent; also called MT4C4S; 4C4S MurT/GatD; source: E. coli BL21 Star (DE3), co-expressed with GatD; purified (HisTrap, SEC); not shown: poly-histidine, N-terminal, kept
# T3 sequence: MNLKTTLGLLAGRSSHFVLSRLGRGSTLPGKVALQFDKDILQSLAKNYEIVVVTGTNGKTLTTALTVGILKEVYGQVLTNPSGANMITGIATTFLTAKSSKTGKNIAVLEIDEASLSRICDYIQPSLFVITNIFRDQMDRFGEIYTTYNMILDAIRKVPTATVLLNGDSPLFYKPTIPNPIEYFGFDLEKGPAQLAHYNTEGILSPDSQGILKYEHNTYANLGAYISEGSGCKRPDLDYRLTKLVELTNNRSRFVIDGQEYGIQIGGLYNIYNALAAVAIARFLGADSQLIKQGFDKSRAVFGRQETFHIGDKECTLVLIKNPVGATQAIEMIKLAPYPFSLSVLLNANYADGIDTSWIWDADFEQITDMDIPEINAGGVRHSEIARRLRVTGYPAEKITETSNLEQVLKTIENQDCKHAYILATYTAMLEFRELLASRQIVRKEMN
# B1: MurT/GatD (Streptococcus pneumoniae R6) (protein)
# chain 1: MNLKTTLGLLAGRSSHFVLSRLGRGSTLPGKVALQFDKDILQSLAKNYEIVVVTGTNGKTLTTALTVGILKEVYGQVLTNPSGANMITGIATTFLTAKSSKTGKNIAVLEIDEASLSRICDYIQPSLFVITNIFRDQMDRFGEIYTTYNMILDAIRKVPTATVLLNGDSPLFYKPTIPNPIEYFGFDLEKGPAQLAHYNTEGILCPDCQGILKYEHNTYANLGAYICEGCGCKRPDLDYRLTKLVELTNNRSRFVIDGQEYGIQIGGLYNIYNALAAVAIARFLGADSQLIKQGFDKSRAVFGRQETFHIGDKECTLVLIKNPVGATQAIEMIKLAPYPFSLSVLLNANYADGIDTSWIWDADFEQITDMDIPEINAGGVRHSEIARRLRVTGYPAEKITETSNLEQVLKTIENQDCKHAYILATYTAMLEFRELLASRQIVRKEMN
# chain 2: MVYTSLSSKDGNYPYQLNIAHLYGNLMNTYGDNGNILMLKYVAEKLGAHVTVDIVSLHDDFDENHYDIAFFGGGQDFEQSIIADDLPAKKESIDNYIQNDGVVLAICGGFQLLGQYYVEASGKRIEGLGVMGHYTLNQTNNRFIGDIKIHNEDFDETYYGFENHQGRTFLSDDQKPLGQVVYGNGNNEEKVGEGVHYKNVFGSYFHGPILSRNANLAYRLVTTALKKKYGQDIQLPAYEDILSQEIAEEYSDVKSKADFS
# notes: co-expressed in E. coli BL21 Star (DE3) from modified pET-30; MurT with N-terminal poly-His tag (cleavage not mentioned), GatD untagged; MurT/GatD heterodimer (four complexes in the asymmetric unit); MurT residues 1-42 present but not visible
# B2: GatD from Streptococcus pneumoniae, wild type, without tag (enzyme)
# chain: MVYTSLSSKDGNYPYQLNIAHLYGNLMNTYGDNGNILMLKYVAEKLGAHVTVDIVSLHDDFDENHYDIAFFGGGQDFEQSIIADDLPAKKESIDNYIQNDGVVLAICGGFQLLGQYYVEASGKRIEGLGVMGHYTLNQTNNRFIGDIKIHNEDFDETYYGFENHQGRTFLSDDQKPLGQVVYGNGNNEEKVGEGVHYKNVFGSYFHGPILSRNANLAYRLVTTALKKKYGQDIQLPAYEDILSQEIAEEYSDVKSKADFS
# notes: GatD, class I glutaminase subunit of the MurT/GatD amidotransferase, Streptococcus pneumoniae; also called GD; GatDSpn; source: E. coli BL21 Star (DE3), co-expressed with His-tagged MurT from a modified pET-30 plasmid; co-purified with MurT (HisTrap, Q Sepharose, SEC)
# Legend:
# [1] = molecular target: MurT variants with substituted conserved residues ("in most cases"); test: co-purification (metal-affinity chromatography of His-tagged MurT, SEC; SDS-PAGE with Coomassie stain, ratio of bands); His-tagged MurT (wild type or variant) co-expressed with untagged GatD in E. coli; lysate loaded on HisTrap FF in 50 mM HEPES pH 7.5, 300 mM NaCl, 10 mM MgCl2, 25 mM imidazole, 2 mM TCEP; then SEC
# [2] = molecular target: T1, MurT/GatD; test: X-ray crystal structure, […] Å; assay type: binding; conditions: tentative assignment to residual density near GatD Cys107; no glutamine added, presumably carried over from E. coli
# [3] = molecular target: T1, MurT/GatD; test: coupled ATPase assay (pyruvate kinase / lactate dehydrogenase, NADH at […] nm), initial velocities; assay type: biochemical; conditions: 2 mM ATP, 10 mM L-Gln, 10 mM MgCl2, 150 mM NaCl, 50 mM HEPES, 2 mM TCEP, 1% DDM, pH 7.5, 30 °C; MurT active site; read-out: Initial velocities method / Apparent KM
# [4] = substrate: NC(=O)CC[C@H](N)C(=O)O; test: purified protein; assay type: biochemical, Streptococcus pneumoniae; conditions: 2 mM ATP, 10 μM lipid II (below its apparent KM), 10 mM MgCl2, 150 mM NaCl, 50 mM HEPES, 2 mM TCEP, 1% DDM, pH 7.5, 30 °C, GatD glutaminase site
# [5] = substrate: Nc1ncnc2c1ncn2[C@@H]1O[C@H](COP(=O)(O)OP(=O)(O)OP(=O)(O)O)[C@@H](O)[C@H]1O; test: purified protein; assay type: biochemical, Streptococcus pneumoniae; conditions: 10 mM L-Gln, 10 μM lipid II (below its apparent KM), 10 mM MgCl2, 150 mM NaCl, 50 mM HEPES, 2 mM TCEP, 1% DDM, pH 7.5, 30 °C, MurT active site
# [6] = molecular target: T2, MurT from Streptococcus pneumoniae, …; test: co-purification (metal-affinity chromatography of His-tagged MurT, SEC; SDS-PAGE with Coomassie stain, ratio of bands); His-tagged MurT (wild type or variant) co-expressed with untagged GatD in E. coli; lysate loaded on HisTrap FF in 50 mM HEPES pH 7.5, 300 mM NaCl, 10 mM MgCl2, 25 mM imidazole, 2 mM TCEP; then SEC; conditions: partners not purified
# [7] = molecular target: T3, MurT 4C4S variant (the four cysteines …); test: as above; conditions: partners not purified
molecule,measurement,setting,value
"GatD from Streptococcus pneumoniae, wild type, without tag (from UniProt Q8DNZ8 1-260) (enzyme)",ratio of MurT/GatD bands,[1],1.78
NC(=O)CC[C@H](N)C(=O)O [L-Gln],"X-ray crystal structure, 3.0 Å",[2],glutamine was thus tentatively placed in the residual density observed in GatD active site
lipid II,Km,[3],220 ± 60 µM
B1,Km,[4],78 ± 8 µM
same,Km,[5],16 ± 2 µM
B2,ratio of the Coomassie-stained MurT/GatD bands after SDS-PAGE,[6],1.78
same,ratio of the Coomassie-stained MurT/GatD bands after SDS-PAGE,[7],1.4
